# Test results taken from patent EP2130555A1.
# Legend:
# [1] = molecular target: hexahistidine-tagged bacterial gyrase subunit B (GyrB) of E. coli (E. coli) (UniProt P0AES6); assay: cell-based or functional assay
# [2] = molecular target: hexahistidine-tagged bacterial gyrase subunit B (GyrB) of E. coli (E. coli) (UniProt P0AES6); assay: ultrafiltration through a 50 kDa cut-off filter, without coumermycin (monomer passes the filter)
# [3] = molecular target: hexahistidine-tagged bacterial gyrase subunit B (GyrB) of E. coli (E. coli) (UniProt P0AES6); assay: ultrafiltration through a 50 kDa cut-off filter, with coumermycin (GyrB : coumermycin = 2:1; dimer is held back)
substance,measurement,setting,value
hexahistidine-tagged bacterial gyrase subunit B (GyrB) of E. coli (from UniProt P0AES6 1-220) (enzyme),"hydrogel dissolution in PBS with 1 mM novobiocin, followed by release of GyrB-polymer complexes into the buffer",[1],11 h
same,stability of hydrogels with DMS-crosslinked GyrB dimers in PBS with 1 mM novobiocin,[1],31 h
same,% of protein in filtrate,[2],54%
same,% of protein in filtrate,[3],2.8%
